Measured values published in article doi:10.1101/2025.11.10.687516 (bioRxiv, 2025).
“And” between values parts separate entries of the source, which are not always exact repeats. Identical values can stand only once. Like-named read-outs stand apart in the source and are kept apart here.

Assays:
SEC [1] = molecular target: the molecule itself; test: SEC
SEC [2] = molecular target: the molecule itself; test: SEC; remark: listed apart in the source

Protein | stoichiometry N (SEC [1]) | stoichiometry N (SEC [2])
PhnO (natural protein, UniProt P16691 1-144, looked up) MPACELRPATQYDTDAVYALICELKQAEFDHHAFRVGFNANLRDPNMRYHLALLDGEVVGMIGLHLQFHLHHVNWIGEIQELVVMPQARGLNVGSKLLAWAEEEARQAGAEMTELSTNVKRHDAHRFYLREGYEQSHFRFTKAL | 2 | 
GrxB (natural protein, E. coli, UniProt P0AC59 1-215, looked up) MKLYIYDHCPYCLKARMIFGLKNIPVELHVLLNDDAETPTRMVGQKQVPILQKDDSRYMPESMDIVHYVDKLDGKPLLTGKRSPAIEEWLRKVNGYANKLLLPRFAKSAFDEFSTPAARKYFVDKKEASAGNFADLLAHSDGLIKNISDDLRALDKLIVKPNAVNGELSEDDIQLFPLLRNLTLVAGINWPSRVADYRDNMAKQTQINLLSSMAI |  | 2
D-tagatose-1,6-bisphosphate aldolase subunit GatZ (natural protein, E. coli, UniProt P0C8J8 1-420, looked up) MKTLIARHKAGEHIGICSVCSAHPLVIEAALAFDRNSTRKVLIEATSNQVNQFGGYTGMTPADFREFVFTIADKVGFARERIILGGDHLGPNCWQQENADAAMEKSVELVKEYVRAGFSKIHLDASMSCAGDPIPLAPETVAERAAVLCFAAESVATDCQREQLSYVIGTEVPVPGGEASAIQSVHITHVEDAANTLRTHQKAFIARGLTEALTRVIAIVVQPGVEFDHSNIIHYQPQEAQPLAQWIENTRMVYEAHSTDYQTRTAYWELVRDHFAILKVGPALTFALREAIFALAQIEQELIAPENRSGCLAVIEEVMLDEPQYWKKYYRTGFNDSLLDIRYSLSDRIRYYWPHSRIKNSVETMMVNLEGVDIPLGMISQYLPKQFERIQSGELSAIPHQLIMDKIYDVLRAYRYGCAE |  | 2 and 4
